Here are results for 14 sequences from the DeepSol protein solubility set.

The nature of this series: soluble on expression in E. coli; label from the status in PepcDB or PDB records.
On to “MQDTDFFSWRRTMLLRFQRMEAAEEAYHEIELQAQQLEYDYYSLCVRHPVPFTRPKVAFYTNYPESWVSYYQAKNFLAIDPVLNPENFSQGHLMWNDDLFSEAQPLWEAAHAHGLRRGVTQYLMLPNRALGFLSFSRCSTREIPILSDELQLKMQLLVRESLMALMRLNDEIVMTPEMNFSKREKEILKWTAEGKTSAEIAMILSITG”, for which the “soluble on expression in E. coli” value is given as “not soluble”.

As to “RLSTWARKQTAMSQTQDYECRSHNVDLPESRIPGSNTRLEWVEIIEPRTRERMYANLVTGECVWDPPAGVRIKRTSENQWWELFDPNTSRFYYYNASTQRTVWHRPQGCDIIPLAKLQTLKQNTESPRASAESSPGRGSSVSREGSTSSSLEPEPDTEKAQELPARAGRPAAFGTVKEDSGSSSPPGVFLEKDYEIYRDYSADGQLLHYRTSSLRWNSGAKERMLIKVADREPSFLAAQGNGYAPDGPPGVRSRRPSGSQHSPSLQTFAPEADGTIFFPERRPSPFLKRAELPGSSSPLLAQPRKPSGDSQPSSPRYGYEPPLYEEPPVEYQAPIYDEPPMDVQFEAGGGYQAGSPQRSPGRKPRPFLQPNKQGPPSPCQQLVLTKQKCPERFLSLEYSPAGKEYVRQLVYVEQAGSSPKLRAGPRHKYAPNPGGGSYSLQPSPCLLRDQRLGVKSGDYSTMEGPELRHSQPPTPLPQAQEDAMSWSSQQDTLSSTGYSPGTRKRKSRKPSLCQATSATPTEGPGDLLVEQPLAEEQPPCGTSLAPVKRAEGEAEGARGAAEPFLAQARLAWEAQQAHFHMKQRSSWDSQQDGSGYESDGALPLPMPGPVVRAFSEDEALAQQENRHWRRGTFEKLGFPQILLEKSVSVQTNLASPEPYLHPSQSEDLAACAQFESSRQSRSGVPSSSCVFPTFTLRKPSSETDIENWASKHFNKHTQGLFRRKVSIANMLAWSSESIKKPMIVTSDRHVKKEACELFKLIQMYMGDRRAKADPLHVALEVATKGWSVQGLRDELYIQLCRQTTENFRLESLARGWELMAICLAFFPPTPKFHSYLEGYIYRHMDPVNDTKGVAISTYAKYCYHKLQKAALTGAKKGLKKPNVEEIRHAKNAVFSPSMFGSALQEVMGMQRERYPERQLPWVQTRLSEEVLALNGDQTEGIFRVPGDIDEVNALKLQVDQWKVPTGLEDPHVPASLLKLWYRELEEPLIPHEFYEQCIAHYDSPEAAVAVVHALPRINRMVLCYLIRFLQVFVQPANVAVTKMDVSNLAMVMAPNCLRCQSDDPRVIFENTRKEMSFLRVLIQHLDTSFMEGVL”, the “soluble on expression in E. coli” value is “soluble”.

Consider “MRIGIISVGPGNIMNLYRGVKRASENFEDVSIELVESPRNDLYDLLFIPGVGHFGEGMRRLRENDLIDFVRKHVEDERYVVGVCLGMQLLFEESEEAPGVKGLSLIEGNVVKLRSRRLPHMGWNEVIFKDTFPNGYYYFVHTYRAVCEEEHVLGTTEYDGEIFPSAVRKGRILGFQFHPEKSSKIGRKLLEKVIECSLSRR”, for which the “soluble on expression in E. coli” value is reported as “soluble”. Next, “MSERMWGFGLTEEEASRSIREKMSINDSPTHGHDIHVTRDLVKHHLSKSDMLTDPSQEVLEERTRIQFIRWSHTRIFQVPSEVMDDVMQERIDQVRRSVSHLMCDSYNDPSFRTSCSEC”: “not soluble”. Turning to “MSLQTCVLHRLSLPLKFPMRTAHGHIREKQAILVQLVDADGIEGWSECVALAEPTYTEECTDTAWVMLVHHLVPRFARWLRAASQDQDVDPRTVCEALRDVRGNRMSVAAIEMAVWDWYAARTGQPLVGLLGGGRDRVEVSATLGMSESLDVLIQSVDAAVEQGFRRVKLKIAPGRDRAAIKAVRLRYPDLAIAADANGSYRPEDAPVLRQLDAYDLQFIEQPLPEDDWFDLAKLQASLRTPVCLDESVRSVRELKLTARLGAARVLNVKPGRLGGFGATLRALDVAGEAGMAAWVGGMYETGVGRVHGLIAAALPLMRYATDLGPSDRYFEQDVLKEPIAFVEPGVIQVPQCAGVADWVDRDAVRRFSTATWSVDLRTLEGHHHHHH”, the “soluble on expression in E. coli” value is “soluble”.

As for “MNPFTYSKPTDITAAVNLSGPATRFIAGGTNLLDLMKENVATPEHLIDITGLPLREVSETASGGLMIGALVSNADLAYHPLIEARYPLLSKAVLAGASPQLRNMASTGGNLLQRTRCYYFYDTGVPCNKREPGSGCPAREGLNRIHAILGASDECVATHPSDMCVALAALEAVVHVEGRAGRRTIEFADFHRLPGDAPQRDNQLADDELIIAVELPAQGFASHNAYLKIRDRASYAFALISVAAAIDLDGDVVRDVRLALGGVAHKPWRDKAVEALLIGKPVTREHFAAAADAMLEDAKPLEHNGFKVRLARRAIIRALSDAATGGSAL”, the “soluble on expression in E. coli” value was “not soluble”. Next, “MGSDKIHHHHHHMEVFVLGCAGSGKSTFVRSFSEFLQERGYSVKCVNLDPASDPAYRADKNVREFVKTENVMVEYGLGVNGALIKSVEIASEHAEELKAEGDFVLYDTPGQLELFIYSEAGRKFVRELSGSFSCSLFLVDLTTVTDPESLLSAIMQDVIVSLRLSLPTLTAFTKSDVADVDVRSLLGEIKHREGVLAELMEKLVDFIELTTIPYRPIKISNIKKTGYEELFSALYELFCAAET”: “not soluble”; “MGHHHHHHSHGTRQELSGNTKSRESIQEPRSDYYNHEVPDIDLSDCEFPHVIEIYDFPQEFRTEDLLRVFCSYQKKGFDIKWVDDTHALGVFSSPITARDALGIKHTMVKIRPLSQATRAAKAKARAYAEFLQPAKERPETSAALARRLVISALGVRSKQSKTEREAELKKLQEARERKRLEAKQREDIWEGRDQSTV”: “soluble”. Next, “MAHHHHHHMAYRVQKTTPAVVDNGTSSDGDEAQRASHKTAKTSSPSPIPKPARRKAPIADSDSDDESATRPAAKTTSPKFALKKAAVDSDSSDEDEPVPKNSSAGKRPAPRAEEAPAQRAARTESEGAARRTPHHLNEDGTFRRFQRIDPAKVTFDADALRDNRPGREHLVLRQNQEMMRTKGKGFNKLKQKNKGKFYGAGVDLSVRAYQFPDSDDE”: “soluble”. In the case of “MSSISLIQPDRDLFSWPQYWAACFGPAPFLPMSREEMDQLGWDSCDIILVTGDAYVDHPSFGMAICGRMLEAQGFRVGIIAQPDWSSKDDFMRLGKPNLFFGVTAGNMDSMINRYTADRRLRHDDAYTPDNVAGKRPDRATLVYTQRCKEAWKDVPVILGGIEASLRRTAHYDYWSDTVRRSVLVDSKADMLMFGNGERPLVEVAHRLAMGEPISEIRDVRNTAIIVKEALPGWSGVDSTRLDTPGKIDPIPHPYGEDLPCADNKPVAPKKQEAKAVTVQPPRPKPWEKTYVLLPSFEKVKGDKVLYAHASRILHHETNPAVPAH”, the “soluble on expression in E. coli” value is listed as “not soluble”. Next, “AKVQAYVSDEIVYKINKIVERRRAEGAKSTDVSFSSISTMLLELGLRVYEAQMER”: “soluble”; “MSLELEQLTSNSIRPYIPKGTHPVETGKYLISTNEIDRMYQTVLQWIGNRIPGAIIYGRPRLGKTRAITYLMNCLPQDFGNNMPIYHVRCRTYKRPNENSFFEDLLLAVGHSIAIQGKANVKRNRLLKFLVERSDFSGTNKVVFFIDDAQRLVEIHYDWLMDLFNELEQYGITLTTILVGQKELVHQRSAFISGEKFQIVGRFMSQEYQFKGIKTPRDLKICLTGYDEYCEYPINSNWSFTKYFFADSFIRGLRLQNSAEELFQVFVDLRREHGLSQKVEIPMQHITLTVEYALKNFGIDNLDLTTIEKTHWEESIKNSGYIQSELYQTTEGHHHHHH”: “not soluble”. For “MGSDKIHHHHHHTKRWEEGKMSNFEYLTMLNLFAGRTIHDSSSSPIFPRILAKFGDKSVDLQDKTIYRKLDRPVAAQDPVSVEKHKEHYNELKENEEISHLTPYHFGSMCSNRGVVSFFNIRLLPFGEEAIELQDGRFDFPDRLFHNIESGLGLGKIESSNDYKELVPELFTTVEVLRNDNGNQFGEKQNGETVNDVDVPQWCYMDEKAVHENFIYLHRHALESEIVQSMLHHWIDLVFGYKSRGKSAHDAINVYHPAVYPGNSPPPSFDRVMTNAYEANQKTLGTAPIQLFTQSHPKR”, the “soluble on expression in E. coli” value is “not soluble”. Turning to “MGSDKIHHHHHHMTARLESNAPVQYAFRLDDREVAVNPLIGRPLRLEYLGSIFCTHCGRKTKKSFSQGYCYPCFTRLAQCDSCIVSPEKCHYEQGTCREPEWGERFCMTDHVVYLANSSGVKVGITRASQIPTRWIDQGARQALPILRVATRQQSGLVEDLLRSQVADRTNWRAMLKGEAEPVDLAAVREQLFDQCADGLRELQQRFGLQAIQPVIDLDPLEIAYPVEAYPSKVASLDLEKTPIVEGTLRGIKGQYLILDTGVINIRKYTAYQIAVHH”, the “soluble on expression in E. coli” value is “not soluble”.
